We go through ten sequences from the Immune Epitope Database (IEDB).

Assay [1] deals with HLA-A*03:01. The experiment in a line: IEDB peptide-MHC binding, purified MHC/direct/fluorescence; filed as Kd, often an IC50 or EC50 that approximates it; ≥ and ≤ were set here for values at or beyond the usual limits of such assays.
For assay [2], the target named is HLA-A*11:01. The description is as above.
The target of assay [3] is HLA-A*31:01. The experiment in a line: IEDB peptide-MHC binding, purified MHC/competitive/fluorescence; filed as Kd, often an IC50 or EC50 that approximates it; ≥ and ≤ were set here for values at or beyond the usual limits of such assays.
For assay [4], the target named is HLA-A*11:01. The experiment in a line: IEDB peptide-MHC binding, purified MHC/competitive/fluorescence; ≥ and ≤ were set here for values at or beyond the usual limits of such assays.
The target of assay [5] is HLA-A*02:19. In words: IEDB peptide-MHC binding, purified MHC/direct/fluorescence; filed as Kd, often an IC50 or EC50 that approximates it; ≥ and ≤ were set here for values at or beyond the usual limits of such assays. To be noted: source organism: Choclo virus.
Assay [6] deals with HLA-A*02:11. The assay is described as above. The settings on record: source organism: Choclo virus.
Assay [7] deals with HLA-A*29:02. The description is as above. The settings on record: source organism: Choclo virus.
Assay [8] deals with HLA-A*68:02. The description is as above.
In assay [9] the target is HLA-A*02:16. Described as above. To be noted: source organism: Choclo virus.
For assay [10], the target named is HLA-A*02:12. The assay is described as above. The settings on record: source organism: Choclo virus.
Assay [11] deals with HLA-B*40:01. The assay is described as above.
Assay [12] addresses HLA-A*24:03. The description is as above. To be noted: source organism: Choclo virus.
The target of assay [13] is HLA-A*02:03. Described as above. To be noted: source organism: Choclo virus.
Assay [14] has as its target HLA-B*15:01. In words: IEDB peptide-MHC binding, purified MHC/competitive/fluorescence; filed as Kd, often an IC50 or EC50 that approximates it; ≥ and ≤ were set here for values at or beyond the usual limits of such assays. To be noted: source organism: Four Corners hantavirus.
The target of assay [15] is HLA-A*02:01. The description is as above. The settings on record: source organism: Four Corners hantavirus.
Assay [16] has as its target HLA-B*15:17. The description is as above. The settings on record: source organism: Four Corners hantavirus.
Assay [17] has as its target HLA-A*26:01. The assay is described as above. The settings on record: source organism: Four Corners hantavirus.
The target in assay [18] is HLA-B*57:01. The description is as above. To be noted: source organism: Four Corners hantavirus.
The target in assay [19] is HLA-B*27:03. The assay is described as above. To be noted: source organism: Four Corners hantavirus.
The target in assay [20] is HLA-B*46:01. The assay is described as above. To be noted: source organism: Four Corners hantavirus.
The target of assay [21] is HLA-B*51:01. The assay is described as above. To be noted: source organism: Four Corners hantavirus.
Assay [22] concerns the target HLA-B*18:01. The description is as above. The settings on record: source organism: Four Corners hantavirus.
Assay [23] concerns the target HLA-A*69:01. The assay is described as above. The settings on record: source organism: Four Corners hantavirus.
Assay [24] addresses HLA-B*39:01. The description is as above. To be noted: source organism: Four Corners hantavirus.
The target of assay [25] is HLA-B*83:01. Described as above.
For assay [26], the target named is HLA-B*15:42. The description is as above.
For assay [27], the target named is HLA-B*45:06. The assay is described as above.
Assay [28] concerns the target HLA-B*15:01. The experiment in a line: IEDB peptide-MHC binding, purified MHC/direct/fluorescence; filed as Kd, often an IC50 or EC50 that approximates it; ≥ and ≤ were set here for values at or beyond the usual limits of such assays. The settings on record: source organism: Yellow fever virus 17D.
The target in assay [29] is HLA-B*46:01. The description is as above. The settings on record: source organism: Yellow fever virus 17D.
The target of assay [30] is HLA-B*15:01. In words: IEDB peptide-MHC binding, purified MHC/competitive/fluorescence; ≥ and ≤ were set here for values at or beyond the usual limits of such assays. The settings on record: source organism: Zaire ebolavirus.
Assay [31] deals with HLA-A*02:01. The assay is described as above. The settings on record: source organism: Zaire ebolavirus.
Assay [32] has as its target HLA-A*24:02. The assay is described as above. The settings on record: source organism: Zaire ebolavirus.
In assay [33] the target is HLA-A*02:01. In words: IEDB peptide-MHC binding, purified MHC/direct/fluorescence; filed as Kd, often an IC50 or EC50 that approximates it; ≥ and ≤ were set here for values at or beyond the usual limits of such assays. To be noted: source organism: Giardia intestinalis.
The target of assay [34] is HLA-A*26:01. The description is as above. To be noted: source organism: Giardia lamblia ATCC 50803.
Assay [35] has as its target HLA-B*57:01. Described as above. The settings on record: source organism: Giardia intestinalis.
The target in assay [36] is HLA-A*01:01. The assay is described as above. To be noted: source organism: Giardia intestinalis.
The target of assay [37] is HLA-B*58:01. The assay is described as above. The settings on record: source organism: Giardia intestinalis.
For assay [38], the target named is HLA-B*07:02. The assay is described as above. The settings on record: source organism: Giardia intestinalis.
For assay [39], the target named is HLA-B*18:01. The description is as above. To be noted: source organism: Giardia intestinalis.
The target in assay [40] is HLA-B*27:05. The assay is described as above. The settings on record: source organism: Giardia intestinalis.
The target of assay [41] is HLA-A*69:01. The assay is described as above. To be noted: source organism: Giardia intestinalis.
The target in assay [42] is HLA-A*31:01. The description is as above. To be noted: source organism: Giardia intestinalis.
The target of assay [43] is HLA-B*48:01. The assay is described as above. To be noted: source organism: Giardia intestinalis.
The target in assay [44] is HLA-A*02:03. The experiment in a line: IEDB peptide-MHC binding, purified MHC/competitive/fluorescence; filed as Kd, often an IC50 or EC50 that approximates it; ≥ and ≤ were set here for values at or beyond the usual limits of such assays. The settings on record: source organism: Giardia intestinalis.
The mark [45] stands for this setting: source organism: Bacillus anthracis.
Setting [46] is: source organism: Yersinia pestis Antiqua.
The mark [47] stands for this setting: source organism: Mycobacterium tuberculosis C.
[48] abbreviates: source organism: Yellow fever virus.
Where [49] appears, read: source organism: Giardia intestinalis.

Bounds are passed on as bounds.

What is called Kd is the concentration at which binding is half-saturated. Low readings indicate tighter binding, high ones weaker binding. As to RTHLGFIFQ, the equilibrium dissociation constant (Kd) in [1] (setting [45]), in assay [2] (setting [45]) and in assay [3] (source organism: Bacillus thuringiensis str. Al Hakam) was no less than 20 µM each time.

On to VSAAGTTLR, for which the Kd in assay [1] (source organism: Mycobacterium tuberculosis) was no less than 20 µM; in [3] (source organism: Mycobacterium tuberculosis H37Rv), 0.35 µM.

The IC50 is the concentration that inhibits the measured activity by half. A low value points to greater potency in that assay. Sequence AAGIAWIPY had a half-inhibitory concentration (IC50) in assay [4] (source organism: Sudan ebolavirus) of 29.6 µM.

On to PELGAFFAI, for which the Kd in assay [1] (source organism: Choclo virus), in assay [5], in [6], in assay [7], in assay [8] (source organism: Choclo virus) and in assay [9] was no less than 20 µM in each case. In addition, the Kd was no less than 20 µM in [10]; 0.107 µM in assay [11] (source organism: Itapua hantavirus); no less than 20 µM in assay [12]; no less than 20 µM in [13]; no less than 20 µM in assay [14]; no less than 20 µM in assay [15]. For the same sequence, the Kd in assay [16], in [17], in assay [18], in assay [19], in assay [20] and in assay [21] was no less than 20 µM each time. Also, the equilibrium dissociation constant (Kd) in assay [22], in [23] and in [24] was no less than 20 µM each time.

As for KVCRSPAQK, the Kd in [1] (setting [46]) came to 1.81 µM; in assay [2] (setting [46]) it was 0.115 µM; in assay [3] (source organism: Yersinia pestis Nepal516), 1.64 µM.

Consider SARRRHLVF, for which the equilibrium dissociation constant (Kd) in assay [25] (setting [47]), in assay [26] (setting [47]) and in [27] (setting [47]) was no less than 5 µM in each case.

For the sequence AEMGANLCV, the dissociation constant (Kd) in [28] is no less than 20 µM; in assay [29], no less than 20 µM; in assay [25] (setting [48]) it was no less than 5 µM; in [26] (setting [48]), no less than 5 µM; in [27] (setting [48]), no less than 5 µM.

Consider GTLTKGVFK, for which the values for the Kd in assay [1] (setting [45]), in [2] (setting [45]) and in assay [3] (source organism: Bacillus anthracis str. A0488) were 0.0549 µM, 0.012 µM and 0.0154 µM, respectively.

As for YQGDYKLFL, the 50% inhibitory concentration (IC50) in assay [30] was 10.8 µM; in assay [31], 0.601 µM; in assay [32], 0.902 µM; in assay [4] (source organism: Zaire ebolavirus) it was 60 µM.

Consider LEKWNLGII, for which the Kd in assay [33], in [34], in assay [35], in [36], in assay [2] (setting [49]) and in [37] was no less than 20 µM each time. In addition, the Kd in assay [38] was no less than 20 µM; in assay [8] (setting [49]), no less than 20 µM; in [39], 1.14 µM; in [40] it was no less than 20 µM; in assay [41], no less than 20 µM; in assay [42], no less than 20 µM. For the same sequence, the Kd in assay [11] (setting [49]) was 0.599 µM; in assay [43], no less than 20 µM; in assay [44], 4.37 µM.
